Results on 41 sequences are retold here after the nanobody polyreactivity screen of Harvey et al. (2022).

A short description of this series: yeast display, Sf9 membrane polyspecificity reagent, FACS + sequencing; frameworks hold sequencing errors. The procedure, abridged: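 Polyreactivity labels are assigned by the sorting gate from which each nanobody was recovered. The gates were low and high (top ~1%), set on anti-HA fluorescence for expression and streptavidin fluorescence for reagent binding. Before sorting, galactose-induced (36–48 hours) yeast display cells were stained for 1 hour at 4 °C with 10% biotinylated, detergent-solubilized Sf9 membrane reagent.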
On to “QVQLVESGGGLLQAGGSLRLSCAASGSIFGDNAMVWYRQAPWKERDLVATISSSDASTYYADSVKGRFTISRDNAKNTVNLQMNSLKPEDTAVYYCAKEVTAGYHVWYDYWGQGTQVTVSS”, for which the “polyreactivity (PSR sort gate)” value is reported as “low polyreactivity”.

For “QVQLVESGGGLLQAGGSLRLSCAASGSIFGQYAMGWYIQAPGKERELVAAISTRGGSTRYADSVKGRFTISRDNAKNTVYLQMNSLKPEDTAVYYCAARVPYIRHLAVDYWGQGTQVTVSS”, the “polyreactivity (PSR sort gate)” value was “high polyreactivity”.

Consider “QVQLVESGGGLLQAGGSLRLSCAASGSIFGSYVMGWYRQAPGKERELVAAITASGGSTYYADSVKGRFTISRDTAKNTVYLQMNSLKPEDTAVYYCATKRTWPVGEMYYWGQGTQVTVSS”, for which the “polyreactivity (PSR sort gate)” value is “high polyreactivity”.

As for “QVQLVESGGGLLQAGGSLRLSCAASGSIFRRNAMGWYRQAPGKERELVAAIRRGGSTNYADSVKGRFTISRDNAKNTVYLQMNSLKPEDTAVYYCAARGGSSGFYYWGQGTQVTVSS”, the “polyreactivity (PSR sort gate)” value was “high polyreactivity”.

Turning to “QVQLVESGGGLLQAGGSLRLSCAASGSIFTYYAMGWYRQAPGKEREFVAAINYGGGSTYYADSVKGRFTISRDNAKNTVYLQMNSQKPEDTAVYYCNARTFGPNGKHRYGYWGQGTQVSVSS”, the “polyreactivity (PSR sort gate)” value was “high polyreactivity”.

In the case of “QVQLVESGGGLLQAGGSLRLSCAASGSIIFYYAMGWYRQAPGKEREFVAAITRSGVRTYYADSGKGRFTISRDNAKNTVYLQMNSLKPEDNAVYYCHADYGFYRPVLMGYWGQGTQVTVSS”, the “polyreactivity (PSR sort gate)” value is “low polyreactivity”.

As for “QVQLVESGGGLLQAGGSLRLSCAASGSTFRAYTMGGYRPAPGKVREFVASITRSGGSTNYADSVKGRFTISRDNAKNTVYLQMNSLKPEDTAGYYCAAGYWRIHYQHFRSRDYWGQGTQVTVSS”, the “polyreactivity (PSR sort gate)” value was “high polyreactivity”.

Consider “QVQLVESGGGLLQAGGSLRLSCAASGSTFVTNDMGWYRPAPGKERELVAAISSGSSTNYADSVKGRFTISRDNAKNSVYVHMNSLKPEDTAVYYCAADSLKRYDYWGQGTQVTVSS”, for which the “polyreactivity (PSR sort gate)” value was “low polyreactivity”.

As for “QVQLVESGGGLLQAGGSLRLSCAATGFIFWYYAMGWYRQAPGKEREFVADISSGGSTNYADSVKGRFTISRDNAKNTVYLQMNSLKPEDTAVYDCSKDNYPYHSTVLAVIYDYWGHGTQVTVSS”, the “polyreactivity (PSR sort gate)” value is on record as “low polyreactivity”.

For the sequence “QVQLVESGGGLLQAGGSLRLSCADSGSILYTNAMGWYRQAPGKERELVAASTTSGASTIYADSVKGRFTISRENAKNTVYLQLNSLKPEDTAVYYCAAPSRYRYYLGNYWGQGTQVTVSS”, the “polyreactivity (PSR sort gate)” value is “high polyreactivity”.

For “QVQLVESGGGLLQAGGSLRLSCADSGSTFGANSLRWYIQAPGKEREFVAAISGSGTTTYYADSVKGRFTISRDNAKNTFYLQMHRLKPEDTAVYYCDKTRIAHWLEYWGQGTQVTVSS”, the “polyreactivity (PSR sort gate)” value is on record as “low polyreactivity”.

As for “QVQLVESGGGLLQAGGSLRLSCSASGFIFHYYARGLYRQAPGKDRELVAAIRSGGSTYYADSVKGRFTISRDNAKNTVYLQMNSLKPEHTEVYFCNGRFYSRGYRYYYWGQGTQVTVSS”, the “polyreactivity (PSR sort gate)” value was “high polyreactivity”.

“QVQLVESGGGLLQAGGSLRLTCAASGSIFRYYSMGWYRQAPGKERELVASINSCGSTYYADSVKGRFTISRDNAKNTVYLQMKSLKPEDSAVYYCAAETSFYYRGYWKSYDYWGQGTQVTVSA”: the “polyreactivity (PSR sort gate)” value is listed as “high polyreactivity”.

For the sequence “QVQLVESGGGLLQAGGSLSLSCAASGGIFYYNAMGRYRQAPRKERELVAANTFSGGSTNYADSVKGRFTISRDNAKNTVYLQMNSLKPEDTAVYYGNARRGYGGGYDYWGQGTQVTVSS”, the “polyreactivity (PSR sort gate)” value is on record as “high polyreactivity”.

On to “QVQLVESGGGLLQAGGSLSLSSAASGITCDLYDMGWYRQAPGKERELVAAITDAHSTYYADSVKGRFTNSRDYAKNTVYLQMNSLKPEDTAVYYCAADWYLYLDDKYDYWGQGTQVTVSS”, for which the “polyreactivity (PSR sort gate)” value was “low polyreactivity”.

Consider “QVQLVESGGGLLRAGGSLRLICADSAFVNYVMGWYRQAPGKERELVAAISKGGGRTYYADSVKGRFTISRDNAKNTVYLQMNSLKPEVTAVYYCNADGGLPKYDYWGQGTQVTVSS”, for which the “polyreactivity (PSR sort gate)” value is listed as “high polyreactivity”.

“QVQLVESGGGLVEAGGSLRLICAASGFIFLSNGMGWYRQGPGKERELVAAISSSGGSTYYADSVKGRFTISRDNAKNTVYLQMNSLKPEDTAVYYCAAEQYSVYETGSYDYWGQGTQVTVSS”: the “polyreactivity (PSR sort gate)” value is reported as “low polyreactivity”.

For the sequence “QVQLVESGGGLVEAGGSLRLSCAASGGIFKIYSMGWYIQAPGKERELVAGINWSDTGTYYADSVKGRFTISRDNAKNTVYLQMNSLKPEDTAVYYCAVSGYPVYITYVSYDYDYWGQGTQVNVSS”, the “polyreactivity (PSR sort gate)” value is reported as “low polyreactivity”.

Consider “QVQLVESGGGLVEAGGSLRLSCAASGGTFKLYAMGWYRPAPGKERELVAAISRRGGSTYYADSVKGRFTISRDNAKNTVYLQMNSLKPDDTALSNCAAPGPTQSTQRGGYWGQGTQVTVSS”, for which the “polyreactivity (PSR sort gate)” value is listed as “high polyreactivity”.

Consider “QVQLVESGGGLVEAGGSLRLSCAASGGTFLRYAMGWSIQAPGKERELVAAITYRNGRTYYADSVKGRFTISRDNAKNTVYLQMNSLKPEDTAVYYCAADSTPRGNPAYDYYYWGQGTQVTVSS”, for which the “polyreactivity (PSR sort gate)” value is reported as “high polyreactivity”.

With “QVQLVESGGGLVEAGGSLRLSCAASGRIFGRNAMGWYRQAPGKERELVAGISSGGTTDYADSVKGRFTISRDNAKNTVYLQMNSLKPEDTAVYYCNVGYAYDDQTYYLGESDYWGQGTQVTVSS”, the “polyreactivity (PSR sort gate)” value was “low polyreactivity”.

As to “QVQLVESGGGLVEAGGSLRLSCAASGRIFRYNAMGWYRQAPGKEWELVAAITASGGRTYYADSVKGRFTISRDNAKNTVYLQMNSLKPDDTAVYYCAATAFDKLKVWYSYWRQGTQVTVSS”, the “polyreactivity (PSR sort gate)” value is “high polyreactivity”.

Turning to “QVQLVESGGGLVEAGGSLRLSCAASGRIFTYYAMGWYRQAPGKERELVASISRSGGNTYYADSVKGRFTISRDNAKNTVYLQMNSLKPEDTAVYYCDAVYSRLDYWGQGTQVTVSS”, the “polyreactivity (PSR sort gate)” value is given as “high polyreactivity”.

Consider “QVQLVESGGGLVEAGGSLRLSCAASGRTFDYNAMGWYRQAPGKERELVAAISRGGSTYYADSVKGRFTISRDNPNNSVYLQMNSLKPEDTAVYYCAALYVRVGYDYWGQGTQVTVSS”, for which the “polyreactivity (PSR sort gate)” value is recorded as “high polyreactivity”.

“QVQLVESGGGLVEAGGSLRLSCAASGRTFRYYAMGWYRQAPGKVREFVAAISTSGGRTYYADSVKGRFTISRDNAKNTVYLQMNSLKPEDTAVYYCAAVSAPRFGMDYLGQGTQVTVSS”: the “polyreactivity (PSR sort gate)” value is “high polyreactivity”.

On to “QVQLVESGGGLVEAGGSLRLSCAASGSIFARYAMGWTRQAPGKERELVAAITSRGGSTYADSVKGRFTISRDNAKNTVFLQMISLIPEDTAVYYCAAATLWYYRYWTSYDYWGQGTQVTVSS”, for which the “polyreactivity (PSR sort gate)” value is “high polyreactivity”.

As to “QVQLVESGGGLVEAGGSLRLSCAASGSTFGVNAMGWSRQAPGKERELVAVITRSGGSTYYADSVKGRFTISRDNAKNTVYLQMNSLKPEDTAVYYCAKSGVVDWGQGTQVTVSS”, the “polyreactivity (PSR sort gate)” value is given as “low polyreactivity”.

As for “QVQLVESGGGLVHAGASLRLSCAASGLTFRKYAKGWYRQAPGKERELVAAITGSGGRTYYADSVKGRFTISRDNAKNTVYLQMNSLQPEDTAVYYCAADDYFHDDYWGQGTQVTVSS”, the “polyreactivity (PSR sort gate)” value is “high polyreactivity”.

For “QVQLVESGGGLVHAGCSLPLTCAASGSTLDANAMGSYRQAPGKEMELVAAISSGGITYYADSVKGRFTFSRDNAKSTVYLQMNCLKPEDTAGYYCANRGQGFQFGRDYWGQGTQVTVSS”, the “polyreactivity (PSR sort gate)” value was “low polyreactivity”.

For the sequence “QVQLVESGGGLVHAGGRLRLSCAASGRTLAPYAMGWYRQAPGKERELVADIDRGGGSTYYADSVTGRFTISRDNAKNTVYLQMNSVKPEDTAVYYCYVDETGVLVAYTFDYWGQGTQVTVSS”, the “polyreactivity (PSR sort gate)” value is given as “low polyreactivity”.

With “QVQLVESGGGLVHAGGRLRLSCDASGSLFFWNTMGWYRQAPGKQRQLVAAITVSGGRTYYADSVKGRFTISRDNAKNSFYLQMYSLKPEDTAVYYCAADPYRLYGYASYTYWGQGTQVTVSS”, the “polyreactivity (PSR sort gate)” value was “high polyreactivity”.

With “QVQLVESGGGLVHAGGSHRLSCAASGLIFRRNPMGWYRQAPGKERELVAAISRTGGSTYYADSVKGSFTISRDNAKNTFYLQMNSMKPEYTAVYYCASDNRDYDYTYEYWGQGTQVTVSS”, the “polyreactivity (PSR sort gate)” value was “low polyreactivity”.

Regarding “QVQLVESGGGLVHAGGSLGLICAASGFIFYRYAMGWYRQAPGKERELVAAISWSGGTTYYADSVKGRFSISRDNAKNTVYLQMNSLKPEDTAVYYCAATRLRTEYYWGHGTQVTVSS”, the “polyreactivity (PSR sort gate)” value is reported as “high polyreactivity”.

Regarding “QVQLVESGGGLVHAGGSLLLSCSASRSIFDLYAMGGYRQAPGKERELVADISIADSTNYADSVKGRFTISRDNAKNTVYLKMNSLKPEDTAVYYCKDDVWWYCYEYDYWGQGTEVTVSS”, the “polyreactivity (PSR sort gate)” value is on record as “low polyreactivity”.

As for “QVQLVESGGGLVHAGGSLPLSCAASGRIFPGYAMRWYRQAPGKEREFVAAIRGTGTSTYYADSVKGRFTISRDNAKNTVYLQMNSLKPEDTAVYYCAASAGYAYNYWGQGTQVTVSS”, the “polyreactivity (PSR sort gate)” value was “low polyreactivity”.

For “QVQLVESGGGLVHAGGSLRLSCAASGFIFWRYAMGWYRQAPGKERELVATITSSGGTTHYADSVKGRFTISRDNAKNTVYLQMNSLKPEDTAVFYCATRNGVGSLFYSRNYWGQGTQVSVSS”, the “polyreactivity (PSR sort gate)” value was “high polyreactivity”.

Take “QVQLVESGGGLVHAGGSLRLSCAASGFTFFKYAKGWYRQAPGKERELVATISIDGITNYADSVKGRFTISRHNAKNTVYLQMNSLKPEDTAVYYCHARSLYQQLGYWGQGTQVTVSS”: the “polyreactivity (PSR sort gate)” value is “low polyreactivity”.

Take “QVQLVESGGGLVHAGGSLRLSCAASGFTFSYNARGWYRQAPGKERELVASITRSGGRTYYADSVKGRFTISRDNAKNTVYLQMNSLKPEDTGVYYCAAVWYPWLSSIFDYWGQGTQVTVSS”: the “polyreactivity (PSR sort gate)” value was “high polyreactivity”.

On to “QVQLVESGGGLVHAGGSLRLSCAASGFTFYKNAMGWYRQAPGKERELVAAISADGGRTYYADSVKGRFTISRDNAKNTVYLQMNSLKPEDTGVYYCNARARRYTRLRWYAYVSDNDYWGQGTQVTVSS”, for which the “polyreactivity (PSR sort gate)” value is reported as “high polyreactivity”.

Turning to “QVQLVESGGGLVHAGGSLRLSCAASGFTSYENAMGWYRQAPGKEREFVAAISYIAGNTYYSDSVKGRFTISRDNAKNTVYLQMNSLKPEDTAVYYCAKTKYILPGNAYVNYDTTAYDYWGQGTQVTVSS”, the “polyreactivity (PSR sort gate)” value is listed as “low polyreactivity”.

Take “QVQLVESGGGLVHAGGSLRLSCAASGIILDYNAMGWYRQAPGKERELVAAITWSGSSTFYADTVKGRYTISHDNSKNTVYLQMNSLKPEDTAVYYCNADYFWGTYANFDYWGQCTQVTVSS”: the “polyreactivity (PSR sort gate)” value is on record as “low polyreactivity”.
